Source: the supplement of paper PMC9112550, “Optimization of the antimicrobial peptide Bac7 by deep mutational scanning” (BMC Biology, 2022)

tested on: Escherichia coli TOP10; assay: shrunken log2 fold change of peptide-encoding DNA abundance (4.5 h post-induction vs induction); higher = less antimicrobial activity (less host growth inhibition); settings: time post-induction: 4.5 h; library: site-saturation at positions 5, 18, 19, 20
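Note: peptides expressed intracellularly from a pBAD plasmid library in pooled LB shake-flask culture, induced with 0.3% L-arabinose, DNA abundance read by NGS, three biological replicates, DESeq2 with apeglm shrinkage.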

Row | Sequence | shrunken log2 fold change
1 | RRIRNRPPRLPRPRPRPVMAPRP | 0.156
2 | RRIRKRPPRLPRPRPRPNNVPRP | 0.0112
3 | RRIRQRPPRLPRPRPRPTHDPRP | 0.911
4 | RRIRPRPPRLPRPRPRPCGWPRP | 0.403
5 | RRIRCRPPRLPRPRPRPNIFPRP | -0.432
6 | RRIRERPPRLPRPRPRPFNFPRP | -0.298
7 | RRIRYRPPRLPRPRPRPQCTPRP | -0.292
8 | RRIRTRPPRLPRPRPRPCKSPRP | 0.075
9 | RRIRHRPPRLPRPRPRPFVTPRP | -0.188
10 | RRIRVRPPRLPRPRPRPPHNPRP | 0.154
11 | RRIRWRPPRLPRPRPRPGYQPRP | -0.00973
12 | RRIRHRPPRLPRPRPRPHYLPRP | 0.0305
13 | RRIRNRPPRLPRPRPRPMPGPRP | 0.0352
14 | RRIRNRPPRLPRPRPRPMNKPRP | 0.0642
15 | RRIRPRPPRLPRPRPRPFRDPRP | -0.118
16 | RRIRDRPPRLPRPRPRPKMRPRP | -0.013
17 | RRIRARPPRLPRPRPRPTYCPRP | -0.119
18 | RRIRCRPPRLPRPRPRPNWSPRP | -0.206
19 | RRIRFRPPRLPRPRPRPFTFPRP | -0.41
20 | RRIRQRPPRLPRPRPRPDVCPRP | 0.13
21 | RRIRPRPPRLPRPRPRPDVTPRP | -0.399
22 | RRIRIRPPRLPRPRPRPYRVPRP | -0.0849
23 | RRIRSRPPRLPRPRPRPNTVPRP | -0.308
24 | RRIRRRPPRLPRPRPRPLMDPRP | 0.235
25 | RRIRIRPPRLPRPRPRPFKIPRP | -0.144

Row | Sequence | shrunken log2 fold change
26 | RRIRFRPPRLPRPRPRPMDPPRP | 0.0482
27 | RRIRSRPPRLPRPRPRPDRNPRP | -0.228
28 | RRIRWRPPRLPRPRPRPSQMPRP | -0.681
29 | RRIRERPPRLPRPRPRPMRSPRP | 0.119
30 | RRIRQRPPRLPRPRPRPWSWPRP | -0.0208
31 | RRIRPRPPRLPRPRPRPPLFPRP | 0.36
32 | RRIRMRPPRLPRPRPRPNLAPRP | 0.337
33 | RRIRWRPPRLPRPRPRPCQFPRP | -0.00192
34 | RRIRIRPPRLPRPRPRPRLHPRP | -0.341
35 | RRIRCRPPRLPRPRPRPGRPPRP | 0.106
36 | RRIRLRPPRLPRPRPRPNNFPRP | -0.184
37 | RRIRCRPPRLPRPRPRPEKGPRP | 0.0373
38 | RRIRLRPPRLPRPRPRPWPSPRP | 0.341
39 | RRIRDRPPRLPRPRPRPSNFPRP | -0.0206
40 | RRIRMRPPRLPRPRPRPAIPPRP | 0.0268
41 | RRIRDRPPRLPRPRPRPCMHPRP | 0.175
42 | RRIRNRPPRLPRPRPRPQNCPRP | 0.0292
43 | RRIRRRPPRLPRPRPRPSLRPRP | -0.0199
44 | RRIRGRPPRLPRPRPRPEDRPRP | 0.23
45 | RRIRCRPPRLPRPRPRPEWGPRP | 0.163
46 | RRIRARPPRLPRPRPRPLHQPRP | 0.147
47 | RRIRDRPPRLPRPRPRPEMMPRP | 0.71
48 | RRIRIRPPRLPRPRPRPYCVPRP | -0.207
49 | RRIRYRPPRLPRPRPRPQRTPRP | -0.335
50 | RRIRWRPPRLPRPRPRPEDWPRP | 0.947

Row | Sequence | shrunken log2 fold change
51 | RRIRKRPPRLPRPRPRPLTGPRP | -0.0975
52 | RRIRVRPPRLPRPRPRPCYFPRP | -0.594
53 | RRIRFRPPRLPRPRPRPESAPRP | 0.428
54 | RRIRQRPPRLPRPRPRPHVFPRP | -0.000919
55 | RRIRYRPPRLPRPRPRPSAWPRP | 0.199
56 | RRIRPRPPRLPRPRPRPFVGPRP | -0.297
57 | RRIRSRPPRLPRPRPRPFRMPRP | -0.646
58 | RRIRWRPPRLPRPRPRPVPYPRP | -0.638
59 | RRIRIRPPRLPRPRPRPLWRPRP | 0.156
60 | RRIRTRPPRLPRPRPRPFMEPRP | -0.228
61 | RRIRYRPPRLPRPRPRPPRGPRP | 0.284
62 | RRIRLRPPRLPRPRPRPDDCPRP | 0.014
63 | RRIRPRPPRLPRPRPRPFMVPRP | -0.478
64 | RRIRKRPPRLPRPRPRPTIDPRP | 0.128
65 | RRIRVRPPRLPRPRPRPAMEPRP | -0.139
66 | RRIRCRPPRLPRPRPRPPNVPRP | 0.213
67 | RRIRDRPPRLPRPRPRPLICPRP | 0.347
68 | RRIRRRPPRLPRPRPRPQGNPRP | 0.0869
69 | RRIRRRPPRLPRPRPRPRLTPRP | 0.439
70 | RRIRDRPPRLPRPRPRPFQSPRP | 0.0407
71 | RRIRQRPPRLPRPRPRPCIAPRP | -0.0382
72 | RRIRRRPPRLPRPRPRPPIYPRP | 0.786
73 | RRIRERPPRLPRPRPRPIIRPRP | -0.447
74 | RRIRRRPPRLPRPRPRPHLGPRP | -0.044
75 | RRIRGRPPRLPRPRPRPIIVPRP | -0.043

Row | Sequence | shrunken log2 fold change
76 | RRIRERPPRLPRPRPRPPYQPRP | -0.1
77 | RRIRERPPRLPRPRPRPCYCPRP | -0.539
78 | RRIRKRPPRLPRPRPRPVMCPRP | 0.0989
79 | RRIRIRPPRLPRPRPRPPRGPRP | 0.534
80 | RRIRNRPPRLPRPRPRPFFYPRP | -0.242
81 | RRIRKRPPRLPRPRPRPHIAPRP | -0.415
82 | RRIRIRPPRLPRPRPRPDQHPRP | -0.202
83 | RRIRGRPPRLPRPRPRPSDCPRP | 0.105
84 | RRIRMRPPRLPRPRPRPRPSPRP | 1.12
85 | RRIRKRPPRLPRPRPRPHLWPRP | 0.709
86 | RRIRRRPPRLPRPRPRPRICPRP | 0.414
87 | RRIRLRPPRLPRPRPRPQNQPRP | -0.159
88 | RRIRFRPPRLPRPRPRPGIKPRP | -0.137
89 | RRIRIRPPRLPRPRPRPVDVPRP | -0.675
90 | RRIRPRPPRLPRPRPRPCVFPRP | -0.164
91 | RRIRWRPPRLPRPRPRPLFKPRP | -0.242
92 | RRIRTRPPRLPRPRPRPQHIPRP | -0.554
93 | RRIRDRPPRLPRPRPRPILAPRP | 0.115
94 | RRIRKRPPRLPRPRPRPATGPRP | 0.145
95 | RRIRKRPPRLPRPRPRPIITPRP | 0.0225
96 | RRIRPRPPRLPRPRPRPSVAPRP | 0.0839
97 | RRIRVRPPRLPRPRPRPEDFPRP | 0.0252
98 | RRIRARPPRLPRPRPRPFGWPRP | 0.24
99 | RRIRTRPPRLPRPRPRPDTDPRP | -0.138
100 | RRIRIRPPRLPRPRPRPAKVPRP | -0.224

Row | Sequence | shrunken log2 fold change
101 | RRIRNRPPRLPRPRPRPVNTPRP | -0.0908
102 | RRIRFRPPRLPRPRPRPLGAPRP | 0.312
103 | RRIRWRPPRLPRPRPRPSMWPRP | 0.111
104 | RRIRARPPRLPRPRPRPQNEPRP | -0.12
105 | RRIRVRPPRLPRPRPRPKGSPRP | 0.0616
106 | RRIRLRPPRLPRPRPRPMLNPRP | -0.423
107 | RRIRSRPPRLPRPRPRPWTWPRP | -0.0804
108 | RRIRQRPPRLPRPRPRPDKRPRP | 0.00102
109 | RRIRWRPPRLPRPRPRPMPQPRP | 0.178
110 | RRIRARPPRLPRPRPRPEWHPRP | 0.381
111 | RRIRMRPPRLPRPRPRPLTHPRP | 0.0406
112 | RRIRVRPPRLPRPRPRPVPSPRP | -0.0143
113 | RRIRGRPPRLPRPRPRPMIRPRP | 0.147
114 | RRIRFRPPRLPRPRPRPQYTPRP | -0.616
115 | RRIRNRPPRLPRPRPRPRWQPRP | -0.00911
116 | RRIRVRPPRLPRPRPRPISEPRP | -0.282
117 | RRIRWRPPRLPRPRPRPNRMPRP | 0.126
118 | RRIRTRPPRLPRPRPRPYFTPRP | -1.11
119 | RRIRCRPPRLPRPRPRPVKEPRP | -0.0734
120 | RRIRTRPPRLPRPRPRPHPVPRP | 0.1
121 | RRIRKRPPRLPRPRPRPQPCPRP | 0.192
122 | RRIRQRPPRLPRPRPRPMFHPRP | -0.815
123 | RRIRKRPPRLPRPRPRPTVYPRP | -0.0794
124 | RRIRFRPPRLPRPRPRPSPHPRP | 0.0339
125 | RRIRSRPPRLPRPRPRPGKNPRP | -0.166

Row | Sequence | shrunken log2 fold change
126 | RRIRMRPPRLPRPRPRPSYCPRP | -0.236
127 | RRIRTRPPRLPRPRPRPKSQPRP | -0.285
128 | RRIRKRPPRLPRPRPRPFFLPRP | 0.225
129 | RRIRYRPPRLPRPRPRPWHFPRP | -1.15
130 | RRIRSRPPRLPRPRPRPYAYPRP | -0.315
131 | RRIRMRPPRLPRPRPRPASLPRP | -0.0145
132 | RRIRPRPPRLPRPRPRPFMNPRP | -0.198
133 | RRIRLRPPRLPRPRPRPETRPRP | 0.0057
134 | RRIRERPPRLPRPRPRPLPHPRP | -0.438
135 | RRIRARPPRLPRPRPRPNEGPRP | -0.175
136 | RRIRDRPPRLPRPRPRPKHIPRP | -0.236
137 | RRIRLRPPRLPRPRPRPHPDPRP | -0.111
138 | RRIRQRPPRLPRPRPRPIQGPRP | -0.0863
139 | RRIRFRPPRLPRPRPRPMNFPRP | -0.283
140 | RRIRFRPPRLPRPRPRPNTGPRP | -0.165
141 | RRIRNRPPRLPRPRPRPIVTPRP | -0.179
142 | RRIRIRPPRLPRPRPRPANNPRP | -0.449
143 | RRIRYRPPRLPRPRPRPAFWPRP | 0.444
144 | RRIRNRPPRLPRPRPRPRVHPRP | 0.172
145 | RRIRLRPPRLPRPRPRPWDKPRP | -0.0731
146 | RRIRLRPPRLPRPRPRPLKPPRP | 0.171
147 | RRIRERPPRLPRPRPRPMENPRP | -0.104
148 | RRIRPRPPRLPRPRPRPNYAPRP | -0.0849
149 | RRIRPRPPRLPRPRPRPVRKPRP | 0.73
150 | RRIRERPPRLPRPRPRPKCKPRP | -0.173
